*: point of attachment. Nonanoyl = CCCCCCCCC(=O)*
Tests used:
[1] = molecular target: T1, chemokine receptor 5 (CCR5) (human, UniProt P51681 1-352); assay: competition with [125I]-MIP-β1, CHO-K1 membranes
T1 construct: whole, on cells
Procedure: (§1) For determination of its binding properties, CHO-K1 cells were used which were stably transfected with the chemokine receptors CCR1, CCR3, CCR5. Therefore, crude membrane extracts prepared from the CHO-K1 cell lines expressing the various GPC were used in radioligand binding assays. Competition binding assays were performed in Minisorp tubes (Nunc, Roskilde, Denmark) in a total volume of 100 μl containing 0.1 nM iodinated ligand as tracer, variable concentrations of competitors and defined amount of membranes. Total binding was measured in the absence of competitor and non-specific binding was measured with a 100-fold excess, of unlabelled ligand. Samples were incubated for 90 minutes at 25° C. then filtered through GF/B filters presoaked in 0.3% polyethylenenimine. Filters were counted in a gamma scintillation counter (Packard). Binding parameters were determined with the PRISM software (Graphpad software, San Diego, Calif.) using non-linear regression applied to a one site competition model.
FIG. 6 represents the compound PHC-1, full size HCC-1 and reference chemokines tested on CCR1, CCR3 and CCR5. Competition binding assays were performed with [¹²⁵I]-RANTES for CCR1, [¹²⁵I]-Eotaxin for CCR3 and [¹²⁵I]-MIP-1, for CCR5. PHC-1, HCC1, MIP-1, RANTES, Eotaxin and MCP-4 were used as competitors. FIGS. 3 and 4 show the binding of additional chemokine compounds of the invention to the CCR5 and CCR1 respectively. Competition assays were performed with [¹²⁵I]-MIP-β1 for CCR5, and [¹²⁵I]-MIP-α1 for CCR1. Each of the chemokine compounds tested was capable of binding both the CCR5 and CCR1 receptors.

[2] = molecular target: T2, chemokine receptor 1 (CCR1) (UniProt P56482 1-355); assay: competition with 125I-Rantes binding to CCR1
chemokine receptor CCR3 = molecular target: T3, chemokine receptor CCR3 (UniProt P51677 1-355, limits assumed); assay: competition with 0.1 nM 125I-Eotaxin, membranes of CHO-K1 cells expressing CCR3, filtration
T3 construct: whole, on cells
T3 sequence (looked up): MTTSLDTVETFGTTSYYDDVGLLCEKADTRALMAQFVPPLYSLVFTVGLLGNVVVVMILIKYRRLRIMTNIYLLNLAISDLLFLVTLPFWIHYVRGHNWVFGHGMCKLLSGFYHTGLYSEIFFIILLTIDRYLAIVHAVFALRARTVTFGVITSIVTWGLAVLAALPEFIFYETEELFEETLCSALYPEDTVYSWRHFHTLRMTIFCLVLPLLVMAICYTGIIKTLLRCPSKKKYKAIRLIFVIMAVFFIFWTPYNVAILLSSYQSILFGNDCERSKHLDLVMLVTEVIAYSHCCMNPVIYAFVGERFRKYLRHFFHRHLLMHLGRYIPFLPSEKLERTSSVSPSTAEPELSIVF
Procedure: as §1
The processed chemokine PHC-1 was a strong competitor of ¹²⁵I-Rantes binding to CCR1 with half-maximal inhibitory concentration of 2.3±0.7 nM. (Ki±SEM).

[3] = molecular target: T2, chemokine receptor 1 (CCR1); assay: competition with 0.1 nM 125I-Rantes, membranes of CHO-K1 cells expressing CCR1, filtration
[4] = molecular target: T2, chemokine receptor 1 (CCR1); assay: radioligand competition binding on CCR1
[5] = molecular target: T1, chemokine receptor 5 (CCR5); assay: radioligand competition binding as in Example 4
Procedure: as §1
FIG. 6 represents the compound PHC-1, full size HCC-1 and reference chemokines tested on CCR1, CCR3 and CCR5. Competition binding assays were performed with [¹²⁵I]-RANTES for CCR1, [¹²⁵I]-Eotaxin for CCR3 and [¹²⁵I]-MIP-1, for CCR5. PHC-1, HCC1, MIP-1, RANTES, Eotaxin and MCP-4 were used as competitors. […]

T1 sequence (P51681 whole entry): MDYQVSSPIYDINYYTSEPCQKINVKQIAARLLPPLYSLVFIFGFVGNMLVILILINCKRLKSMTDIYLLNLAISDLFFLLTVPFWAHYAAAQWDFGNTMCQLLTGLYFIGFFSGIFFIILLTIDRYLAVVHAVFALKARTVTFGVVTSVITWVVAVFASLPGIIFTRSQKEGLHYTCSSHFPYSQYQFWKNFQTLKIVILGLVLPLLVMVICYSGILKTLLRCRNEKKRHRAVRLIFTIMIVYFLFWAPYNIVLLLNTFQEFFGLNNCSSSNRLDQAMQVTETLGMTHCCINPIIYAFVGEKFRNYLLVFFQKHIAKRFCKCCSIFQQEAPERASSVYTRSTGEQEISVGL
T2 sequence (P56482 whole entry): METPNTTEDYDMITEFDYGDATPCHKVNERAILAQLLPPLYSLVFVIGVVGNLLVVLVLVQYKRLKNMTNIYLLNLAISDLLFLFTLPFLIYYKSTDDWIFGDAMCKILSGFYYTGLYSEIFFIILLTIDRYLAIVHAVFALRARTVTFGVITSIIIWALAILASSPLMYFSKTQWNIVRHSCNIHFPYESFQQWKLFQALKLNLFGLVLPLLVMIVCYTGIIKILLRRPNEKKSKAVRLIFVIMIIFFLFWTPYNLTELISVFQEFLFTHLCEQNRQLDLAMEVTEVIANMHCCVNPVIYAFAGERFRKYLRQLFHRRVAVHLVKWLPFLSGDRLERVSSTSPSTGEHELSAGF

B1: HCC-1[7-74] (ligand)
chain: SRGPYHPSECCFTYTTYKIPRQRIMDYYETNSQCSKPGIVFITKRGHSVCTNPSDKWVQDYIKDMKEN
notes: Synthetic, oxidatively folded
binding result [1]: binds

B2: PHC-1 (HCC-1[9-74]) (ligand)
chain: GPYHPSECCFTYTTYKIPRQRIMDYYETNSQCSKPGIVFITKRGHSVCTNPSDKWVQDYIKDMKEN
notes: Purified from human hemofiltrate or made by tryptic digestion of HCC-1 1-74; also called processed chemokine PHC-1; HCC-1, residues 9-74
Ki [2]: 23000 nM | IC50 (chemokine receptor CCR3): 78 nM | IC50 [3]: 2.3 nM

B3: full size HCC-1 (HCC-1, residues 1-74) (ligand)
chain: TKTESSSRGPYHPSECCFTYTTYKIPRQRIMDYYETNSQCSKPGIVFITKRGHSVCTNPSDKWVQDYIKDMKEN
notes: The 74-residue chemokine, Mr 8673; also called full-length HCC-1; HCC-1, 1-74
Ki [4]: 100 nM

B4: HCC-1[10-74] (ligand)
chain: PYHPSECCFTYTTYKIPRQRIMDYYETNSQCSKPGIVFITKRGHSVCTNPSDKWVQDYIKDMKEN
notes: Synthetic, oxidatively folded
binding result [1]: binds

B5: HCC-1[8-74] (ligand)
chain: RGPYHPSECCFTYTTYKIPRQRIMDYYETNSQCSKPGIVFITKRGHSVCTNPSDKWVQDYIKDMKEN
notes: Synthetic, oxidatively folded
binding result [1]: binds

B6: NNY-HCC-1[10-74] (ligand)
chain: Nonanoyl-PYHPSECCFTYTTYKIPRQRIMDYYETNSQCSKPGIVFITKRGHSVCTNPSDKWVQDYIKDMKEN
modifications: ends and bridges not checked
notes: An N-terminally modified analog of HCC-1[10-74]; also called nonanoyl-HCC-1[10-74]
binding result [5]: binds

B7: HCC-1[11-74] (ligand)
chain: YHPSECCFTYTTYKIPRQRIMDYYETNSQCSKPGIVFITKRGHSVCTNPSDKWVQDYIKDMKEN
notes: Synthetic, oxidatively folded
binding result [1]: binds

Source: patent US20090082262A1 (published 2009)
